Experimental data published in IntAct's records for PubMed 9171338.

B1: Clathrin heavy chain (Saccharomyces cerevisiae), P22137 (parent)
chain: MSDLPIEFTELVDLMSLGISPQFLDFRSTTFESDHFVTVRETKDGTNSVAIVDLAKGNEVTRKNMGGDSAIMHPSQMVISVRANGTIVQIFNLETKSKLKSFTLDEPVIFWRWLSETTLGFVTARSILTSNVFDGNVNAKPQLLTLRHANLNNTQIINFVANKNLDWFAVVGILQENGRIAGRIQLFSKQRNISQAIDGHVAIFTNILLEGNGSTPVQVFVTGNRNATTGAGELRIIEIDHDASLPSQYQKETTDIFFPPDATNDFPIAVQVSEKYGIIYLLTKYGFIHLYELETGTNLFVNRITAESVFTAAPYNHENGIACINKKGQVLAVEISTSQIVPYILNKLSNVALALIVATRGGLPGADDLFQKQFESLLLQNDYQNAAKVAASSTSLRNQNTINRLKNIQAPPGAISPILLYFSTLLDKGKLNKEETIELARPVLQQDRKQLFEKWLKEDKLECSEELGDIVKPFDTTLALACYLRAGAHAKVISCLAELQQFEKIIPYCQKVGYQPNFLVLISSLIRSSPDRASEFAVSLLQNPETASQIDIEKIADLFFSQNHIQQGTSLLLDALKGDTPDQGHLQTRVLEVNLLHAPQVADAILGNNIFSHYDKPTIASLSEKAGLYQRALENYTDIKDIKRCVVHTNALPIDWLVGYFGKLNVEQSLACLKALMDNNIQANIQTVVQVATKFSDLIGPSTLIKLFEDYNATEGLYYYLASLVNLTEDKDVVYKYIEAAAKMKQYREIERIVKDNNVYDPERVKNFLKDANLEDQLPLVIVCDRFDFVHEMILYLYKSQNLKFIETYVQQVNPSKTAQVVGALLDMDCDEAFIQSLLQSVLGQVPINELTTEVEKRNRLKILLPFLEQSLSQGIQDQAVYNALAKIYIDSNNSPEKFLKENDQYDTLDVGHYCEKRDPYLAYIAYEKGQNDDDLIRITNENSMYKYQARYLLERSDLDLWNKVLNQENIHRRQLIDSVISVGIPELTDPEPVSLTVQAFMTNGLKLELIELLEKIILEPSPFNENVALQGLLLLSAIKYEPTKVSSYIEKLDNYDADEIAPLCIEHDLKEEAFEIYDKHEMYGKALKVLIEDIMSLDRAASYADKINTPELWSQIGTAQLDGLRIPDAIESYIKAEDPSNYENVIDIAEQAGKYEELIPFLLMARKTLKEPKIDGALILAYAELNKIHEIENLLAGSNVANLDHVGDKLFENKEYKAARLCYSAVSNYSKLASTLVYLGDYQAAVDTARKASNIKVWKLVNDACIEKKEFKLAQICGLNLIVHAEELDELVERYESNGYFEELISLFEAGLGLERAHMGMFTELAILYSKYEPDKTFEHLKLFWSRINIPKVIRAVEQAHLWSELVFLYAHYDEWDNAALTLIEKSTKDLDHAYFKEVVVKVSNLEIYYKAINFYVKFHPSLLVDLLTSLTPRLDIPRTVKIFSKSDNLPLIKPFLINVLPKNNSVVNQAYHDLMIEEEDYKALQDAVDSYDKFDQLGLASRLESHKLIFFKKIGALLYRRNKKWAKSLSILKEEKLWKDAIETAAISQDPKVVEALLTYFVETGNREGFVALLYAAYNLVRIEFVLEISWMNSLEDYIKPFEISIKKEQNDSIKKITEELAKKSGSNEEHKDGQPLMLMNSAMNVQPTGF
partner: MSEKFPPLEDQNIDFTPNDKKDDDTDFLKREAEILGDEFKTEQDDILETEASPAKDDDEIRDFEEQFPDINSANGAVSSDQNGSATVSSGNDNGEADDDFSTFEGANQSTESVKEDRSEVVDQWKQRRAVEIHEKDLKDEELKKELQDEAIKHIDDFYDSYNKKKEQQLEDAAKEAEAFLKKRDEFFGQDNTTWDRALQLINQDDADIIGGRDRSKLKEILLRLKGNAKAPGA

Variants of: B1
Conditions: with clc1_yeast CLC1, P17891

Row | Variant | effect of a mutation on the interaction
1 | P1553L;E1590K | disrupting interaction strength
2 | S1347F;P1553L | with no effect
3 | S1331F;S1347F;E1590A | disrupting interaction strength
4 | S1331F;S1347F;E1590K | disrupting interaction strength
5 | E1590K | disrupting interaction strength
6 | S1331F;S1347F;P1553L;E1590K | disrupting interaction strength
7 | S1347F;P1553L;E1590K | disrupting interaction strength
8 | S1331F;S1347F | with no effect
9 | S1331F;S1347F;P1553L | with no effect

Variants of: B1
Conditions: with clc1_yeast CLC1, P17891
Remark: another data set of the same source

Row | Variant | effect of a mutation on the interaction
10 | S1331F;S1347F;E1590A | disrupting interaction strength
11 | E1590A | disrupting interaction strength
